# From IntAct's records for PubMed 16766694
# B1: Pyridoxal 5'-phosphate synthase subunit PDX1.3 (Arabidopsis thaliana (Mouse-ear cress)), Q8L940 (parent)
# chain: MEGTGVVAVYGNGAITEAKKSPFSVKVGLAQMLRGGVIMDVVNAEQARIAEEAGACAVMALERVPADIRAQGGVARMSDPQMIKEIKQAVTIPVMAKARIGHFVEAQILEAIGIDYIDESEVLTLADEDHHINKHNFRIPFVCGCRNLGEALRRIREGAAMIRTKGEAGTGNIIEAVRHVRSVNGDIRVLRNMDDDEVFTFAKKLAAPYDLVMQTKQLGRLPVVQFAAGGVATPADAALMMQLGCDGVFVGSGIFKSGDPARRARAIVQAVTHYSDPEMLVEVSCGLGEAMVGINLNDEKVERFANRSE
# partner: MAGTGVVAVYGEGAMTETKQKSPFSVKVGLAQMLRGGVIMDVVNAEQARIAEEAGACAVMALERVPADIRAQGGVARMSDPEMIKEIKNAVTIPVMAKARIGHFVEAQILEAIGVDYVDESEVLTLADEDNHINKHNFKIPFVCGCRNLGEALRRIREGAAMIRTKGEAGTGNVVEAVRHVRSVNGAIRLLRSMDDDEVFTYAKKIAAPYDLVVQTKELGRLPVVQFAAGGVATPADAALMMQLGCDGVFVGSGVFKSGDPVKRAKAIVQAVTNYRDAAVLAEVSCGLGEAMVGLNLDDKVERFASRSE
# B2: Pyridoxal 5'-phosphate synthase subunit PDX1.3 (Arabidopsis thaliana (Mouse-ear cress)), Q8L940 (parent)
# chain: B1 chain
# partner: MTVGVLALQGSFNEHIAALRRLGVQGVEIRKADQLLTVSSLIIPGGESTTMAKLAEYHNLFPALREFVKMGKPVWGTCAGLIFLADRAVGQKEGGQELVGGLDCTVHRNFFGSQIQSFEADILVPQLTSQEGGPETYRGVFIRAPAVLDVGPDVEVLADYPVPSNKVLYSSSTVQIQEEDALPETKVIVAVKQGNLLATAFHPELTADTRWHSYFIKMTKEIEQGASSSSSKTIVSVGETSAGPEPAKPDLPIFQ
# B3: Pyridoxal 5'-phosphate synthase subunit PDX1.3 (Arabidopsis thaliana (Mouse-ear cress)), Q8L940 (parent)
# chain: B1 chain
# partner: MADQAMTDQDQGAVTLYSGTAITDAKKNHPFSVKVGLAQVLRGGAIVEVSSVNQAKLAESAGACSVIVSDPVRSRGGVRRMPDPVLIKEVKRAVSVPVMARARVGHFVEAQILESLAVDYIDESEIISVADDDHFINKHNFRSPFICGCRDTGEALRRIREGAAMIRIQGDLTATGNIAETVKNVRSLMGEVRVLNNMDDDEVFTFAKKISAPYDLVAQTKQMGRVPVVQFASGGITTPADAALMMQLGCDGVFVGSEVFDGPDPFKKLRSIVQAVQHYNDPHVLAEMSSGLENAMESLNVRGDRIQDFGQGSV
# Variants of: B1
# Settings: with pdx11_arath PDX11, O80448
row,effect of a mutation on the interaction,Variant
1,disrupting interaction,G54S

# Variants of: B2
# Settings: with pdx2_arath PDX2, Q8LAD0
row,effect of a mutation on the interaction,Variant
1,disrupting interaction,G54S

# Variants of: B3
# Settings: with pdx12_arath PDX12, Q9ZNR6
row,effect of a mutation on the interaction,Variant
1,disrupting interaction,G54S
